# In patent US20180207202A1, “METHODS FOR MOBILIZING HEMATOPOIETIC STEM CELLS” (Ohio State Innovation Foundation, priority 2013, published 2018):
# Where two headings read alike, the source gives them in different places.
# B1: FLT3L: recombinant human FLT3L (Celldex Therapeutics or Miltenyi Biotec), stem cell-specific growth factor (protein, UniProt P49771 27-235, looked up)
# Fms-related tyrosine kinase 3 …: TQDCSFQHSPISSDFAVKIRELSDYLLQDYPVTVASNLQDEELCGGLWRLVLAQRWMERLKTVAGSKMQGLLERVNTEIHFVTKCAFQPPPSCLRFVQTNISRLLQETSEQLVALKPWITRQNFSRCLELQCQPDSSTLPPPWSPRPLEATAPTAPQPPLLLLLLLPVGLLLLAAAWCLHWQRTRRRTPRPGEQVPPVPSPQDLLLVEH
# B2: G-CSF: Granulocyte colony stimulating factor (Amgen), routinely used to mobilize PBSC (protein, UniProt P09919 31-207, looked up)
# Granulocyte …: TPLGPASSLPQSFLLKCLEQVRKIQGDGAALQEKLVSECATYKLCHPEELVLLGHSLGIPWAPLSSCPSQALQLAGCLSQLHSGLFLYQGLLQALEGISPELGPTLDTLQLDVADFATTIWQQMEELGMAPALQPTQGAMPAFASAFQRRAGGVLVASHLQSFLEVSYRVLRHLAQP
# What was measured:
# [1] = tested on: CD8+ T cells; assay: CD8+ T cells in mobilized peripheral blood, flow cytometry (Example 3); format: in vivo, mice (WT B6D2F1/J); settings: group of three mice
# Experimental: It is known that donor CD8^+ T cells are mainly responsible for GVHD in HSCT, and G-CSF is considered a toxic mobilizer as it also induces GVHD.
# In FIG. 3, WT B6D2F1/J mice were treated with FLT3L or G-CSF for 10 or 5 days, respectively, followed by a one-hour Plerixafor treatment. PBS served as a control. Peripheral blood cells were assayed by flow cytometry to examine percentages of CD8^+ T cells ([…]) in total white blood cells. Data were summarized from a group of three mice.
# [2] = tested on: HSCs (Lin-Sca-1+c-Kit+, LSK cells); assay: LSK cell mobilization into peripheral blood, flow cytometry (Example 6); format: in vivo, C57BL/6 mice
# Experimental: (§1) C57BL/6 mice were injected intraperitoneally (i.p.) either (i) with recombinant human FLT3L (Celldex Therapeutics or Miltenyi Biotec) ([…]) for 10 consecutive days or (ii) with G-CSF (Amgen) ([…]) for 5 consecutive days. The capacity of human FLT3L to bind murine FLT3L receptors and Plerixafor to block murine Cxcr4 receptor was previously reported. (See, e.g., Lyman et al., 1994; Brawel et al., 1996; Gerlach et al., 2001; Broxmeyer et al., 2005). Twelve hours after the last dose of either FLT3L or G-CSF, the mice were injected i.p. with either PBS or Plerixafor (AMD3100, Sigma) (5 mg/kg). The mice were euthanized one hour later.
# As described by Ferraro et al., 2011, peripheral blood was collected retro-orbitally while the mice were under deep anesthesia. Briefly, the mice were […] by an i.p. injection with 100 μL of a mixture of ketamine (54.3 mg/mL) and xylazine (9.1 mg/mL). Blood was collected from the retro-orbital venous plexus through a microcapillary heparinized tube. The mice were then euthanized while still deeply anesthetized. RBCs were depleted by RBC lysis buffer. The remaining cells were subjected to flow cytometric analysis or transplantation.
# The mAbs reactive with murine cell antigens were purchased from BD Biosciences or eBioscience. Cell preparation and analysis were performed as described by Yu et al., 2010. […]
# [3] = tested on: NK cells (NK1.1+CD3-); assay: NK cell expansion in peripheral blood and spleen, flow cytometry (Example 2); format: in vivo, mice (WT C57BL/6 or B6D2F1/J)
# Excerpt: […] PBS; gated on total white blood cells).
# In FIG. […] PBS served as a control. Peripheral blood cells were counted using trypan blue and assayed by flow cytometry to examine percentages of NK cells (NK1.1^+CD3^−).
# [4] = tested on: Lin-c-kit+Sca-1+ HSCs and Lin-c-kit+Sca-1- progenitor cells; assay: Mobilization of HSCs and committed progenitors into peripheral blood, flow cytometry (Example 1); format: in vivo, mice (WT B6D2F1/J)
# Excerpt: Since HSCs are important for long-term reconstitution and progenitor cells are critical for short-term rapid reconstitution in transplantation, whether a combination of FLT3L and Plerixafor can mobilize both types of cells was investigated. In mice, Lin^−c-kit^+Sca-1^+ cells are enriched HSCs and Lin^−c-kit^+Sca-1^− cells are more committed progenitor cells. […] Furthermore, the mobilization effect of the FLT3L and Plerixafor combination was much stronger than the G-CSF and Plerixafor combination, the strongest mobilizer currently used clinically (5.9% vs. 2%, 10.3% vs. 1%, n=3, p<0.01, respectively). The flow results were validated by another method, stem cell colony formation assay.
# In FIG. 1, WT B6D2F1/J mice were treated with FLT3L or G-CSF for 10 or 5 days, respectively, followed by a one-hour Plerixafor treatment. PBS served as a control. On the last day of the treatment, mice were sacrificed and peripheral blood cells were subjected to flow cytometry to determine percentages (among total WBC) of stem-cell enriched (Lin^−CD117^+Sca-1^+) (FIG. 1A) or more committed precursor cells ([…]) (FIG. 1B).
# [5] = tested on: lethally irradiated syngeneic mouse model; assay: Survival of lethally irradiated syngeneic mice given mobilized peripheral blood cells (Example 5); format: in vivo, mice (C57BL/6); settings: 0.2 million mobilized PB cells per lethally irradiated recipient
# Experimental: Peripheral blood (PB) mobilized by FLT3L and Plerixafor prolongs mouse survival in a lethally irradiated syngeneic mouse model and a fully mismatched acute GVHD model. To test whether the mobilized stem cells and other immune cells can improve transplantation, mobilized cells were administered to lethally irradiated (IR) syngeneic mice at the dose of 0.2 million PB cells for each recipient mouse.
# [6] = tested on: fully mismatched acute GVHD model; assay: Survival in fully mismatched acute GVHD model given mobilized peripheral blood cells (Example 5); format: in vivo, mice (C57BL/6 to BALB/c); settings: 0.8 million mobilized cells per mouse
# [7] = tested on: lethally irradiated BALB/c mice; assay: Allogeneic transplantation of mobilized grafts into lethally irradiated mice (Example 6); format: in vivo, BALB/c mice (grafts from C57BL/6); settings: 8×10^5 mobilized cells per recipient
# Experimental: For allogeneic transplantation, each recipient BALB/c mouse was subjected to a lethal irradiation (delivered in 2 fractions separated by 4 hours using RS 2000 X-Ray Q2 Irradiator) and was then injected with 8×10^5 mobilized RBC depleted peripheral blood cells isolated from C57BL/6 mice. […] Considering the likely graft rejection and GVHD complication in the allogeneic model, a 4-fold higher number of cells (i.e., 8×10^5 donor cells isolated from C57BL/6 mice) were administered intravenously (i.v.) into each BALB/c recipient for allogeneic transplants. The lethally irradiated mice were housed in a sterile environment and baytril antibiotic was provided in the drinking water to prevent infection-caused mortality. After transplantation, mice were monitored daily and the phenotypes of the mice were recorded.
# (§2) Irradiated mice without any cell infusion (IR Ctl) served as a control group. A total of 2×10^5 (A) or 8×10^5 (B) peripheral blood cells were transplanted for each recipient. Each group contains 5 to 8 mice. A log-rank test was used to compare survival curves.
# In FIG. 16, lethally irradiated BALB/c mice were transplanted with grafts from C57BL/6 mice that were mobilized by the indicated regimens. At four months post-transplantation, the surviving mice were sacrificed.
# [8] = tested on: NK cells, Tregs, DCs, monocytes, neutrophils; assay: Immune cell subsets in mobilized peripheral blood, flow cytometry (Example 6); format: in vivo, C57BL/6 mice
# Experimental: as §1
# The mAbs reactive with murine cell antigens were purchased from BD Biosciences or eBioscience. Cell preparation and analysis were performed as described by Yu et al., 2010. The immune subsets were gated as CD3^−NK1.1^+ for natural killer (NK) cells, CD3^+CD25^+Foxp3^+ for regulatory T cells (Tregs), B220^−CD11c^+CD11b^− for conventional dendritic cells (cDCs), and CD11b^−CD11c^lowPDCA1^+SiglecH^+ for plasmacytoid DCs (pDCs).
# In FIG. 12, the constitution of immune cell subsets in mobilized peripheral blood was determined by flow cytometric analysis with corresponding antibodies (B cell: CD3^−CD19^+, T cell: CD3^+NK1.1^−; NK cell: CD3^−NK1.1^+; Neutrophil: Gr1^highCD11b^+; Monocyte: Gr1^medCD11b^+; DC: CD11c^+). […]
# [9] = tested on: lethally irradiated C57BL/6 mice; assay: Syngeneic transplantation of mobilized grafts into lethally irradiated mice (Example 6); format: in vivo; settings: 2×10^5 mobilized cells per recipient
# Experimental: For syngeneic transplantation, C57BL/6 mice were subjected to 9 Gy of irradiation delivered in 2 fractions separated by 4 hours using RS 2000 X-Ray Q2 Irradiator (Rad Source Technologies, Suwanee GP). Four hours later, each mouse was transplanted via the tail vein with 2×10^5 mobilized RBC-depleted peripheral blood cells from C57BL/6 mice. […] The lethally irradiated mice were housed in a sterile environment and baytril antibiotic was provided in the drinking water to prevent infection-caused mortality. After transplantation, mice were monitored daily and the phenotypes of the mice were recorded.
# as §2
# [10] = tested on: mice syngeneically infused; settings: cited from earlier work
# [11] = tested on: peripheral blood stem cells; settings: cited from earlier work
Molecule,proportion of CD8+ T cells in total white blood cells [1],number of LSK cells in blood compared with PBS-treated mice [2],NK cells in peripheral blood and spleen ([3]; FLT3L alone for 14 days),NK cell content compared with the combination of GCSF and Plerixafor ([3]; gated on total white blood cells),effect on progenitor cells and HSCs ([4]; FLT3L administration for 5 days),"Lin-c-kit+Sca-1+ HSC, percentage among total WBC ([4]; peripheral blood, FLT3L administration of 7 days and 10 days, printed as 0.13% vs. 1.8%, n=3, p<0.01) [%]","Lin-c-kit+Sca-1- progenitor cells, percentage among total WBC ([4]; peripheral blood, FLT3L administration of 7 days and 10 days, printed as 0.47% vs. 1.8%, n=3, p<0.01) [%]",protection from death [5],survival rate two months (day 60) after transplantation [6] [%],mice surviving to 4 months post-transplantation [7] [%],NK (CD3-NK1.1+) cell percentages [8],mice alive four months after transplantation [9],survival rate at day 21 [9] [%],mice survived ([10]; 2.5×10^5 cells mobilized by G-CSF transplanted),mice survived ([10]; syngeneically infused with 1×10^6 peripheral nucleated cells mobilized by G-CSF),"autologous transplant patients that respond poorly ([11]; G-CSF or G-CSF plus chemotherapy, varied depending on disease types and age)",normal donors that mobilize stem cells poorly ([11]; in response to G-CSF)
"c1cc(CN2CCCNCCNCCCNCC2)ccc1CN1CCCNCCNCCCNCC1 [Plerixafor, reference compound]",moderately gave rise to a proportional increase,moderate increase,,,,,,,,,,,,,,,
B1,dramatically decreased,significantly more LSK cells,dramatically increased,much higher NK cell content,increased only Lin-c-kit+Sca-1-progenitor cells but not HSCs,1.8,1.8,fully protect mice from death,60,66,significantly increased,approximately 70%,100,,,,
B2,,,,,,,,,,,,,,around 17%,about 90%,10-30%,5-10%
